For 25 substances, IC50 results are on record in PMC2193136.

Usually IC50 stands for the concentration that inhibits the measured activity by half. Low readings indicate higher potency, high ones lower potency.

In the first assay the target is HLA-DR2 (DRA1*0101/DRB1*1501) molecules, detergent-solubilized, purified from S2 cells (human). The assay can be described thus: competition peptide-binding assay.
On to MBP 87–99 truncated peptide, for which the half-maximal inhibitory concentration (IC50) was 5 nM. MBP 85–99 analogue 86 (N→A) (peptide) displayed a half-inhibitory concentration (IC50) of 7 nM. On the same count and under the same terms, the figure for MBP 85–99 analogue 89 (V→A) (peptide) is 50 nM. In turn, “MBP 86–99 truncated peptide (row label printed as (85–99))” registered a 50% inhibitory concentration (IC50) of 3 nM. Take MBP 85–99 analogue 91 (F→A) (peptide): the half-maximal inhibitory concentration (IC50) came to 10 nM. Still for that read-out and setting: the figure for MBP 85–99 analogue 87 (P→A) (peptide) is 10 nM; for MBP 85–99 analogue 93 (K→A) (peptide) it is 4 nM; for MBP 85–99 analogue 96 (V→A) (peptide) it is 4 nM.

MBP 85–99 analogue 85 (E→A) (peptide) displayed a half-inhibitory concentration (IC50) of 7 nM. The substance MBP 85–99 analogue 97 (T→A) (peptide) gave a 50% inhibitory concentration (IC50) of 4 nM. As to MBP 85–99 analogue 98 (P→A) (peptide), the concentration for half-maximal inhibition (IC50) was determined as 5 nM. Turning to MBP 85–99 analogue 92 (F→Y) (peptide), the concentration for half-maximal inhibition (IC50) was determined as 12 nM.

Take MBP 85–99 analogue 90 (H→A) (peptide): the concentration for half-maximal inhibition (IC50) worked out at 10 nM.

As to MBP 85–99 analogue 99 (R→A) (peptide), the IC50 worked out at 5 nM.

Consider MBP 85–99 analogue 88 (V→A) (peptide), for which the IC50 was 10 nM. MBP 85–97 truncated peptide had an IC50 of 15 nM.

Turning to MBP 85–99 peptide, the IC50 turned out to be 5 nM. On the same count and under the same terms, to MBP 85–99 analogue 95 (I→A) (peptide) belongs 4 nM; to MBP 85–98 truncated peptide, 4 nM; to MBP 85–99 analogue 94 (N→A) (peptide), 4 nM.

The substance MBP 85–96 truncated peptide yielded an IC50 of 20 nM.

MBP 88–99 truncated peptide showed an IC50 of 30 nM.

For the next assay the target is unchanged. The assay can be described thus: peptide binding inhibition assay.
Consider human PLP peptide PLP 95–116, for which the IC50 is 1480 nM. For the substance “HLA-DQw6 peptide corresponding to residues 43–58”, the half-inhibitory concentration (IC50) is 70 nM. On to human PLP peptide PLP 40–60, for which the 50% inhibitory concentration (IC50) is 200 nM.
